According to patent publication US20070293451A1 (UNIVERSITY OF PITTSBURGH, published 2007):
Ends that are not written are not given here. * marks the point of attachment. 6FAM = O=C1OC2(c3ccc(O)cc3Oc3cc(O)ccc32)c2cc(C(=O)*)ccc21; Ahx = NCCCCCC(=O)O

T1: full length Sse1p (yeast Hsp110) (Saccharomyces cerevisiae (yeast), UniProt P32589 2-693)
T1 construct: Purified as in Goeckeler et al., 2002; also called Sselp
T1 sequence: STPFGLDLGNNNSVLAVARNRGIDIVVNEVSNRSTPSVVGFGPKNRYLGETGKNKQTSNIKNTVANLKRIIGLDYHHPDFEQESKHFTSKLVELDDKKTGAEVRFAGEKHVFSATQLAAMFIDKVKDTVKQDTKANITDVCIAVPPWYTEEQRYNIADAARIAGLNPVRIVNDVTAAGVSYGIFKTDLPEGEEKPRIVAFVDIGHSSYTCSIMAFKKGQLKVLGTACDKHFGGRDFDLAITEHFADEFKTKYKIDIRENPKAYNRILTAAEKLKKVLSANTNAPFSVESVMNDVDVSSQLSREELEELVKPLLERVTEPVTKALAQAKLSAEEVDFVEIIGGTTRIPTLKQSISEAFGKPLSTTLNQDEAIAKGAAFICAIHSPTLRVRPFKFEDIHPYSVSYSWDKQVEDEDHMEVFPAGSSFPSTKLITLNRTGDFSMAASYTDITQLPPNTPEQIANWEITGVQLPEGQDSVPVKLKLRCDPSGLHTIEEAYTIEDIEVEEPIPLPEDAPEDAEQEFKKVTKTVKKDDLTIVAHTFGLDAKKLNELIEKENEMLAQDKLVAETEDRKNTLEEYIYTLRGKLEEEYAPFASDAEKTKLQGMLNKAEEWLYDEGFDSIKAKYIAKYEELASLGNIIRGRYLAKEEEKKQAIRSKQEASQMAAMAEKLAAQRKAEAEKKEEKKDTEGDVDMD

T2: peptide binding domain of Sse1p (Saccharomyces cerevisiae (yeast), UniProt P32589 375-693, limits assumed)
T2 sequence: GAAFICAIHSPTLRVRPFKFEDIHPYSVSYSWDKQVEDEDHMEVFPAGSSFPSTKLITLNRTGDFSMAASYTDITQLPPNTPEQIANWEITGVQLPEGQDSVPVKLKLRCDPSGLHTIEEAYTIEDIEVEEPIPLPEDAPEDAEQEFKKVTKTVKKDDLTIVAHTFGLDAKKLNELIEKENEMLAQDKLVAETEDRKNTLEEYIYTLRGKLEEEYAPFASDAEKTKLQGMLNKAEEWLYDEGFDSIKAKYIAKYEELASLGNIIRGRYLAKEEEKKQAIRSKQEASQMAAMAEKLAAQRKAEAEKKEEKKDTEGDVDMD


Assays:
[1] = biological target: T1, full length Sse1p (yeast Hsp110); experiment: fluorescence anisotropy
Method: (§1) In this assay, full length Sse1p and the peptide binding domain of Sse1p were bound to a 6-carboxyfluorescein-aminohexanoic acid-N-terminal-linked-polypeptide having the sequence N-[…]-C (SEQ ID NO: 1), which was derived from firefly luciferase. Binding was assessed by fluorescence anisotropy. […] Unlabeled peptide competes for binding (data not shown).

[2] = biological target: T2, peptide binding domain of Sse1p; experiment: fluorescence anisotropy; reference is full-length Sse1p
Method: as §1

[3] = biological target: T1, full length Sse1p (yeast Hsp110); experiment: fluorescence anisotropy competition against the labeled peptide

Kd [1] [nM]	fold lower affinity than full-length Sse1p [2] [fold]	binding result [3]	Binder
2 to 3	~100	–	{6FAM-Ahx}-LICGFRVVLMYRF (also called fluorescently labeled peptide)
–	–	binds	LICGFRVVLMYRF [unlabeled peptide LICGFRVVLMYRF]
